Biological target: the molecule itself
Assay: SEC-MALS; Protein KW.802.5 (Shodex) column, 1 mL/min, 50 mM TRIS/HCl, 500 mM NaCl, pH 8.0; protein conjugate analysis

B1: AGR-124 (human agrin y4z19, FS9-LG3 domains, Ala893-Pro2068) (domain or fragment)
chain: not shown
modifications: glycans (limited N-linked, presumably O-linked) contributing around 10% of the total mass
notes: human agrin y4z19, 9th FS domain to the last LG domain (FS9-LG3), Ala893-Pro2068; codon-optimized synthetic gene; Tag removed with TEV protease; also called agrin-like AGR-124 substrate; source: SFM-HEK293 suspension cells, transient transfection; purified from the medium (Ni-IMAC, heparin, SEC); not shown: 6xHis, N-terminal, cleaved
B1: binds.

From article PMC9616769, “Deconstruction of Neurotrypsin Reveals a Multi-factorially Regulated Activity Affecting Myotube Formation and Neuronal Excitability” (Molecular Neurobiology, 2022)
